According to patent US20200055939A1 (Genentech, published 2020):
Substitutions are numbered along the chain they refer to.

T1: S287A
T1 construct: % monomer 90.34; also called MICA*008.mIgG2a S287A
T1 chain: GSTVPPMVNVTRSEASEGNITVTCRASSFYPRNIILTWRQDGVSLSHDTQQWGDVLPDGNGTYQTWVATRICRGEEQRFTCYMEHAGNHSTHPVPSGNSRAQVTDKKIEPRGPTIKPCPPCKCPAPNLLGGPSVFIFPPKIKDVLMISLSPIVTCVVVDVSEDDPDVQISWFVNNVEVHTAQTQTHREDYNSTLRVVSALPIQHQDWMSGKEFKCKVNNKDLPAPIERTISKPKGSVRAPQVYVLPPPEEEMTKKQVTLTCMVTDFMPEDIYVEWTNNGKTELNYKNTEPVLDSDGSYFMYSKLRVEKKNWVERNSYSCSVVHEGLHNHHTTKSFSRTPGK

T2: P294A
T2 construct: % monomer 89.16; also called MICA*008.mIgG2a P294A
T2 chain: T1 chain with A86S, P93A

T3: R279A
T3 construct: % monomer 95.2; also called MICA*008.mIgG2a R279A
T3 chain: T1 chain with R78A, A86S

T4: Q241A (Fc fusion, a disulfide-linked homodimer; one chain given.)
T4 construct: % monomer 97.6; also called MICA*008.mIgG2a Q241A
T4 chain: T1 chain with Q40A, A86S

T5: H290A
T5 construct: % monomer 90.37; also called MICA*008.mIgG2a H290A
T5 chain: T1 chain with A86S, H89A

T6: S291A
T6 construct: % monomer 83.21; also called MICA*008.mIgG2a S291A
T6 chain: T1 chain with A86S, S90A

T7: S297A
T7 construct: % monomer 89.24; also called MICA*008.mIgG2a S297A
T7 chain: T1 chain with A86S, S96A

B1: 2E5.2.3 Fab (Fab, V domains shown)
VH: QGQMQQSGAELVKPGASVKLSCKTSGFTFSDNYISWLKQKPGQSLEWIAWIYAGTGGTSYNQKFTAKAQLTVDTSSSTAYMQFSSLTTEDSAIYYCARHDYYGTSGAWFAYWGQGTLVTVSA
VL: DVLMTQTPLSLPVSLGDQASLSCRSSQNIVHINGNTYLEWYLQKPGQSPKLLIYKVSNRFSGVPDRFSGSGSGTDFTLKISRVEAEDLGVYYCFQGSHVPWTFGGGTKVEIK
B2: 1D5 Fab (Fab, V domains shown)
VH: EIQLQQSGPELVKPGASVKVSCKASGYAFTSQNIYWVKQSHGKSLEWIGYIEPYNVVPMYNPKFKGKATLTVDKSSSSAYIHLNSLTSEDSAIYYCARSGSSNFDYWGQGTTLTVSS
VL: EIILTQSPTTMAASPGEKITITCSASSSISSHYLHWYQQKSGFSPKLLIYRTSNLASGVPARFSGSGSGTSYSLTIGTMEAEDVATYYCQQGSSLPLTFGAGTKVEIK
notes: Expressed in E. coli as chimera of murine variable and human constant domains; not shown: human IgG1 CH1 constant domain; human kappa CL constant domain
B3: 6F8.7 Fab (Fab, V domains shown)
VH: DVQLQGSGPGLVKPSQSLSLTCSVTGYSITNDYYWNWIRQFPGNKLEWMGFISFGGSNNYNPSLKNRISITRDTSKNQFFLKLSSVTTEDTATYYCARYDGRGAWFAYWAQGTLVTVSA
VL: DIQMTQSPASLSASVGETVTITCRASGNIHNYLAWYQQKQGKSPQLLVYDAITLADGVPSRFSGSGSGTQYSLKINSLQPEDFGNYYCQHFWSFPLTFGAGTKVEIK
B4: 7D4.6 Fab (Fab, V domains shown)
VH: DVQLQESGPGLVKPSQSLSLTCTVTGYSITSDYAWNWIRQFPRNKLEWMGYINYSGTTNYNPSLKSRISITRDTSKNQFFLQLISVTTEDTATYYCSYYRYDGAWFPYWGQGTLVTVSA
VL: B3 VL with D50N, T53M, G64A, N85S

Biological target: T1, S287A
Experiment: SPR, Fab over captured MICA*008.mIgG2a Ala variant; KD relative to wild type

| fold-decrease in affinity | Binder |
| --- | --- |
| 1 | B1 |
| 4.9 | B2 |
| 1.1 | B3 |
| 1.3 | B4 |

Biological target: T2, P294A
Experiment: as above

| fold-decrease in affinity | Binder |
| --- | --- |
| 1 | B1 |
| 1 | B2 |
| 0.9 | B3 |
| 1 | B4 |

Biological target: T3, R279A
Experiment: as above

| fold-decrease in affinity | Binder |
| --- | --- |
| 0.8 | B1 |
| 4.5 | B3 |
| 5.1 | B4 |

Biological target: T4, Q241A
Experiment: as above

| fold-decrease in affinity | Binder |
| --- | --- |
| 1.1 | B1 |
| 1.1 | B3 |
| 0.4 | B4 |

Biological target: T5, H290A
Experiment: as above

| fold-decrease in affinity | Binder |
| --- | --- |
| 0.8 | B1 |
| 8.4 | B3 |
| 8.8 | B4 |

Biological target: T6, S291A
Experiment: as above

| fold-decrease in affinity | Binder |
| --- | --- |
| 1.1 | B1 |
| 1.1 | B2 |
| 2.7 | B3 |
| 2.7 | B4 |

Biological target: T7, S297A
Experiment: as above

| fold-decrease in affinity | Binder |
| --- | --- |
| 1.2 | B1 |
| 0.05 | B2 |
| 1 | B3 |
| 1.1 | B4 |
